The values below come from paper PMC8836243.

Read-outs that look alike come from different tables or passages of the source.

The target in experiment [1] is Human CCR7 WT (human) (UniProt P32248).
Experiment [2] has the same target. The source holds these as a separate data set.

Sequence of UniProt P32248 (P32248 25-378): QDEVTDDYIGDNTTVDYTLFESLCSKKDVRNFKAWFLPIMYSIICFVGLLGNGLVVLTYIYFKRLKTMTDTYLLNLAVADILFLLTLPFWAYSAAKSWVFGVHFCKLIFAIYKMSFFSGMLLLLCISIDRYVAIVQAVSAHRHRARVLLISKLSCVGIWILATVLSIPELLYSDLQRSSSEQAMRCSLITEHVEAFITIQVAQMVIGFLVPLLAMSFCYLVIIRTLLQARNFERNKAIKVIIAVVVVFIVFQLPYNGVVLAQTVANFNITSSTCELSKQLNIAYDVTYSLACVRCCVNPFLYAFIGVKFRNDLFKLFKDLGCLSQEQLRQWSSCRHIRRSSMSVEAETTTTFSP

As to “CCL19 K71A K73A R74A R75A (CCL19 AMAAA^71-75) (ligand)”, in the experiment with Human CCR7 WT (human) [1], the increase in potency in Gαi signalling (BRET) with 10 μM long C21TP (CCL21 81-111) added is 3 fold; the increase in potency in Gαi signalling (BRET) with 10 μM short C21TP (CCL21 89-106) added worked out at 3.5 fold; the potency in Gαi signalling (BRET), against WT CCL19 was found to be 22 fold.
As for “CCL21 1-91 C80A (from UniProt O00585 24-114) (ligand)”, in the experiment with Human CCR7 WT (human) [2], the increase in potency in Gαi signalling (BRET) with 10 μM long C21TP (CCL21 81-111) added was found to be 19.7 fold and the increase in potency in Gαi signalling (BRET) with 10 μM short C21TP (CCL21 89-106) added was determined as 16.6 fold.
